# Literature values as cited in publication PMC11076006.
# Target: TLR4 (Homo sapiens) (UniProt O00206)
# Chain of UniProt O00206 (O00206 24-839): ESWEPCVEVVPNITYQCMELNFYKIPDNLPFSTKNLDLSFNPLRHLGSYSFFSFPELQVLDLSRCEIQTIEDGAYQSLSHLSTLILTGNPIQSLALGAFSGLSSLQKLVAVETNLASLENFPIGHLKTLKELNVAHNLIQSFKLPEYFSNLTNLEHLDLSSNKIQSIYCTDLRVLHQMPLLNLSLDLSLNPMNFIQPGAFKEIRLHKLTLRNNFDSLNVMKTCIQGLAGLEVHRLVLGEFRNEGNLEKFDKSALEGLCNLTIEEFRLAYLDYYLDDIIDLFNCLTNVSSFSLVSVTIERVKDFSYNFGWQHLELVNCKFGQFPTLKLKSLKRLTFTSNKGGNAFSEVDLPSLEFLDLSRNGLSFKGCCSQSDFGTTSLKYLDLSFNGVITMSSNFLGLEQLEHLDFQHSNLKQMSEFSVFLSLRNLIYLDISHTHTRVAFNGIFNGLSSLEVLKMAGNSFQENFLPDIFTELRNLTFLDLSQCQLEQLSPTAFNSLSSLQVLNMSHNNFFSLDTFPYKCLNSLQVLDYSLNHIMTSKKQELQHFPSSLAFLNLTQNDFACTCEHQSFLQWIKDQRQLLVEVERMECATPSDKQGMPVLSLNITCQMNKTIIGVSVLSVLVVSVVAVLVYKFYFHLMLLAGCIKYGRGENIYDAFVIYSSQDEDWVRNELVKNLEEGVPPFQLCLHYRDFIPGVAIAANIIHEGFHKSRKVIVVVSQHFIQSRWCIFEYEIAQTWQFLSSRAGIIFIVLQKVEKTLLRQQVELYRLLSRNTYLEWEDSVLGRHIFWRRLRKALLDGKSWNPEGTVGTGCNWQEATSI
substance,measurement,value
S100A9 (from UniProt P06702),Kd,3.2 nM
